In US20240117035A1 (published 2024) one finds EC50 data, which are given here for one molecule.

The target of the experiment is CD3 on CD3+ Jurkat cells (human, UniProt P07766 23-207). The experiment is described as follows: FACS binding, Jurkat cells.
CD3 on CD3+ Jurkat cells, sequence (P07766 23-207): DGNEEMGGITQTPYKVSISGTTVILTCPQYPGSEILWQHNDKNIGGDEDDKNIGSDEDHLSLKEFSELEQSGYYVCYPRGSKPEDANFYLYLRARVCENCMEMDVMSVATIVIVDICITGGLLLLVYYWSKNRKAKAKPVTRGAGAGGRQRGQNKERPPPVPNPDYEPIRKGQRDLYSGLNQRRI

B1: m-13/CD3-v2 (antibody)
chain 1: QLQLQQSGTELVRPGSSVKISCKASGYAFSNYWMNWVKQRPGQGLEWIGQIYPGNGDTKYNGNFKGKATLTADKSSSTAYMQLSSLTSEDSADYFCARYYRGNCFDYWGQGTTLTVSS
chain 2: DIVLTQSPSSLTVTAGEKVTMSCKSSQSLLNSGNQKNYLTWYQQKPGQPPKLLIYWASTRDSGVPARFTGSGSGTDFTLTINSVQAEDLAVYYCQNAYTYPLTFGAGTKLEIK
chain 3: EVQLVESGGGLVKPGGSLKLSCAASGFTFSTYAMNWVRQAPGKGLEWVARIRSKYNNYATTYADSVKDRFTISRDDSKNTAYLQMNNLRTEDTAVYYCVRHGNWGNSYISYWAYWGQGTTVTVSS
chain 4: not shown
Regarding B1, it took 26.5 nM to reach a half-maximal effect (EC50). That is a double-digit nanomolar value.
